The source of these data is publication PMC7310041.

For the experiment, the target named is microtubules (paclitaxel-stabilised polymerised tubulin) (human (endogenous in HEK293T)) (UniProt P68363). Kind of experiment: co-sedimentation; cell-based MT binding assay: lysate of transfected HEK293T cells in PEM buffer (80 mM PIPES pH 6.8, 1 mM EGTA, 1 mM MgCl2) with 0.1% Triton X-100, 2 mM GTP, 20 uM paclitaxel; 37 °C 30 min; 100,000 g 30 min; tau in supernatant and pellet by Western blot; percent MT-bound = pellet/(supernatant+pellet)*100.
Sequence of UniProt P68363 (P68363 whole entry, chain 1 of 2): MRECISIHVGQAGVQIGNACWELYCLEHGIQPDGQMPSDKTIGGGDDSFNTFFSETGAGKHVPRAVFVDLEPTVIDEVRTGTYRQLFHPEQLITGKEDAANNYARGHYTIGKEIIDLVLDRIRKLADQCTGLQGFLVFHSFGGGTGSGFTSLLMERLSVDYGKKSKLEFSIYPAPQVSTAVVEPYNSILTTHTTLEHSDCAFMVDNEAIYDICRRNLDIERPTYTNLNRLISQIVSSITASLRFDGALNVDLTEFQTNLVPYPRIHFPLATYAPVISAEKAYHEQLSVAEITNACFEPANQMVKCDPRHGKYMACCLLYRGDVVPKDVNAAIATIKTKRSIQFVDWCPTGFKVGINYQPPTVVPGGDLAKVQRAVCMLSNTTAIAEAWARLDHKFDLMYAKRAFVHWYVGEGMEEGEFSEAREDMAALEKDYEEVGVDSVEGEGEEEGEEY
Sequence of UniProt P68363 (P07437 whole entry, chain 2 of 2, further chain): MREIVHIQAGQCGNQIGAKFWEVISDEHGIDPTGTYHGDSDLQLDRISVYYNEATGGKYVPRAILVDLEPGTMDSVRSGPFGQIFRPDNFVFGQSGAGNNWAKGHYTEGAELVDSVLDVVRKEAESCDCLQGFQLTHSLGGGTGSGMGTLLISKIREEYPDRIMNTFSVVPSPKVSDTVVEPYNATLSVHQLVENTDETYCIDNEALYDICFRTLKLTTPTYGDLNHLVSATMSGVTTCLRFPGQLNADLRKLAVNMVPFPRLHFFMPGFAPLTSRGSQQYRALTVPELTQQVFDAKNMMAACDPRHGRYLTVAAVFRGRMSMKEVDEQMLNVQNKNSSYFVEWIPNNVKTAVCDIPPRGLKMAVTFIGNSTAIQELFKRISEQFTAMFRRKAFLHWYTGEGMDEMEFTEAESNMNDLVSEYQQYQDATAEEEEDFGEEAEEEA

“2N4R human tau S208E phosphomimetic (from UniProt P10636-8 1-441) (natural protein)” came in with a percent of tau bound to MTs of 41%.
